Results taken from PMC11039405.

Molecular target: T1, AmrZ (Pseudomonas aeruginosa PAO1) (UniProt G3XCY4)
T1 sequence: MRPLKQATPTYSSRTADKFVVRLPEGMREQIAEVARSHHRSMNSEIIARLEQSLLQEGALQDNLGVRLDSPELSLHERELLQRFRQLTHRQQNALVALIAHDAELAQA
Test: EMSA

How did the binding turn out when “GTTATCTGCTTTCGGCCAAGAGATTTGGCTCCTTGCATATTATAAGAACCCCAACACTTCCCGTCGTACCTTGAATGCCCCGCCTAGCGGAGAGGCATGAATACGCTCCGTTTTATTGATTTTCAAAGCCATGAGCACGGAGTCGATTTTATAATAATCAGGATTATCCGACGTGCGCTGA (double strand) [exsA promoter]” was run?
The binding was “no binding”.
